Reference: article PMC5913134, “The IL-33-PIN1-IRAK-M axis is critical for type 2 immunity in IL-33-induced allergic airway inflammation” (Nature Communications, 2018)

Columns and labels:
[1] = test system: IRAK-M; experiment: IRAK-M protein levels in BMDCs; format: cell-based, mouse; settings: BMDC from WT and PIN1 KO mice, IL-33, time-dependent
[2] = test system: IRAK-M; experiment: IRAK-M phosphorylation in DC2.4 cells; format: cell-based, C57BL/6; settings: DC2.4; IL-33 100 ng/ml, 1 h, γ-32P labeling
Experimental: (§1) Fig. 2 IL-33 induces IRAK-M phosphorylation and binding to PIN1. a GST PIN1 pulldown assay with DC2.4 cell extracts either non-treated or treated with IL-33 (100 ng/ml) or LPS (100ng/ml) for 1 h. […] The cells were washed with fresh medium and treated with 100 ng/ml IL-33 for the indicated times prior to IRAK-M immunoprecipitation. d DC2.4 cells stably expressing IRAK-M were treated with IL-33 and at the indicated time points were subjected to CO-IP using anti-PIN1 antibody and blotted for IRAK-M. e HEK293 cells were transfected with different IRAK-M constructs expressing the N’ terminal domain (aa1-220), the middle portion of the protein (aa220-440) or the C’ terminal domain (aa 440-630), and then treated with IL-33, followed by CO-IP for PIN1. f DC2.4 cells stably expressing IRAK-M were treated with IL-33 and subjected to GST or GST-PIN1 pull-down.

[3] = test system: PIN1; experiment: PIN1 enzymatic (PPIase) activity in DC2.4 cells; format: cell-based, C57BL/6; settings: IL-33 100 ng/ml, 5 min, substrate Suc-Ala-Glu-Pro-Phe-pNa
Experimental: DC2.4 cell line were either treated with 100ng/ml IL-33 for indicate time (0, 5 and 15 min). The cells were harvested and homogenized in a reaction buffer containing 100 mM NaCl, 50 mM HEPES, pH 7, 2 mM DTT, and 0.04 mg/ml BSA. The lysates were cleared by centrifugation at 12,000 g for 10 minutes (4 °C). PPIase activity was measured using equal amounts of […] cytoplasmic lysates and α-chymotrypsin using a synthetic tetrapeptide substrate Suc-Ala-Glu-Pro-Phe-pNa (Peptides International). Absorption at 390 nm was measured using an Ultrospec 2000 spectrophotometer. The results are expressed as the mean of 3 measurements from a single experiment and are representative of 3 independent experiments.

[4] = test system: CD11c^+ CD11b^+ CD205^+ cells; experiment: Flow analysis of lung CD11c+ dendritic cells after IL-33 challenge; format: in vivo, mouse; settings: for change in CD11c^+ CD11b^+ CD205^+ cells: IL-33, n = 3
Experimental: Male mice in each group, 3-5 weeks old were anesthetized using Isoflurane. The mice were treated intranasal with 200ng/mice/day for four continues days. By the fifth day the mice were killed by CO2 suffocation, and bronchial alveolar lavage fluid (BALF) was extracted using PBS. The lungs were extracted and fixed using 10% para formaldehyde. Immunofluresence of slide sections was performed. Slides were analyzed using anti-PIN1 antibodies and anti-IRAK-M antibodies or IgG as control and were counterstained using DAPI. In some cases, cells obtained from BALF were cytospined and the cells were fixed and stained in the same manner. For staining of the cells, Diff-Quick (Diff-Quik) Staining Protocol were used. All animal work was carried out in compliance with the ethical regulations approved by the Animal Care Committee, Beth Israel Deaconess Medical Center, Boston, MA, USA. The permission was granted to perform animal experiments by the Institutional Animal Care and Use Committee at Beth Israel Deaconess Medical Center, Boston, MA, USA.
Lungs were digested using Kollagenase D and dispase and the dendritic cells populations (CD11c^+ CD205^+ CD11b^+) were determined by staining the cells using the following antibodies: PE anti mouse CD11c (catalog number 117307), APC anti mouse CD205 (catalog number 138205), FITC anti mouse CD11b (catalog number 101205). For co stimulatory protein expression, FITC anti mouse CD40 (catalog number 124607), FITC anti mouse CD80 (catalog number 104705), FITC anti mouse CD86 (catalog number 105005) were used. For T cell (CD3^+ CD4^+) population isolation, the cells were stained with APC anti mouse CD3^+ (catalog number 100235) FITC anti mouse CD4^+ (catalog number 100405) before the cells were cell sorted. Human BALF samples were stained with FITC anti human CD15 (catalog number 301903) or FITC anti human CD205 (catalog number 342206). All antibodies were purchased from Biolegend and diluted according to manufacture instruction (1:100 dilution). Cells were analyzed using LSRII flow cytometer and FlowJo software. For cytospin the cells were spun onto glass slides, air dried and fixed using 4%PFA and stained with the indicated antibodies.

[5] = test system: naive CD4^+ cells co-cultured with BMDCs; experiment: BMDC / naive CD4+ T cell co-culture TH2 polarization, IL-5 and IL-13 secretion; format: cell-based, C57 B6 mice; settings: WT BMDC + naive CD4+ T cells, IL-33 50 ng/ml, 5 days
Experimental: Supplementary Figure 7. IRAK-M KO or Pin1 KO derived bone marrow dendritic cells attenuates Naïve TH2 cell differentiation upon IL-33 induction in co culture experiment. Naïve CD4+ T cells isolated from C57 B6 mice were cultured with or without IL-33 (50ng/ml) and BMDCs isolated from WT, IRAK-M KO (a) or Pin1 KO mice (b) in a 1:5 ratio for 5 days with no antigen being added. In some cases as indicated 5 µM of ATRA was added to the medium two days prior to T cell co culturing and during the experiment. Supernatants were analyzed for cytokines on day 5. The data were analyzed by a Student's two-tailed t test and the values are reported as mean ± standard errors of the means (SEM). *- statistical significance (P<0.05), **- significance (P<0.01).

[6] = test system: Il6, Csf3, Cxcl2 and Ccl5 expression in DC2.4 cells; experiment: qRT-PCR of Il6, Csf3, Cxcl2 and Ccl5 in DC2.4 cells; format: cell-based, C57BL/6; settings: IL-33, pLKO control DC2.4 cells
Experimental: Also as indicated, some cells were pretreated for 3 days with 5 μM or 10 μM of ATRA before IL-33 induction. e Relative gene expression of Il6, Csf3, Cxcl2 and Ccl5 in the different samples as in d normalized to actin. f IRAK-M was stably expressed in pLKO or TET on shPin1 expressing cells, followed by induction with IL-33, before western blot to examine protein expression of IRAK-M, PIN1 and tubulin as well as g qRT-PCR to determine the relative gene expression for Il6, Csf3, Cxcl2 and Ccl5 in the different samples.
SYBR Green PCR Master Mix (Applied Biosystems, Foster City, CA) was used for two-step real-time RT-PCR analysis on an Applied Biosystems StepOnePlus Real Time PCR instrument. […] Expression value of the targeted gene in a given sample was normalized to the corresponding expression of Actin. The 2^–ΔΔCt method was used to calculate relative expression of the targeted genes.

[7] = test system: PIN1-IRAK-M interaction; experiment: GST-PIN1 pulldown of IRAK-M from DC2.4 cell extracts; format: cell-based, C57BL/6; settings: 100 ng/ml, 1 h, DC2.4 extracts
Experimental: as §1
Glutathione-Sepharose 4B (Amersham) coupled with glutathione S-transferase (GST) or GST-PIN1 and washed with 150 mM NaCl, 20 mM Tris-HCl (pH 8), 1 mM MgCl2, and 0.1% NP-40 was mixed with 1 mg of total protein extract for 3 h at 4 °C. The beads were then washed extensively, and the protein was eluted with 20 mM reduced glutathione. The proteins were resolved by SDS-PAGE and visualized by Western analysis or autoradiography. […]

B1: IL-33: Recombinant mouse IL-33 purchased from BioLegend (protein, UniProt Q8BVZ5 1-266, looked up)
Interleukin-33: MRPRMKYSNSKISPAKFSSTAGEALVPPCKIRRSQQKTKEFCHVYCMRLRSGLTIRKETSYFRKEPTKRYSLKSGTKHEENFSAYPRDSRKRSLLGSIQAFAASVDTLSIQGTSLLTQSPASLSTYNDQSVSFVLENGCYVINVDDSGKDQEQDQVLLRYYESPCPASQSGDGVDGKKLMVNMSPIKDTDIWLHANDKDYSVELQRGDVSPPEQAFFVLHKKSSDFVSFECKNLPGTYIGVKDNQLALVEEKDESCNNIMFKLSKI
With B1 the IRAK-M protein levels [1] was “increased IRAK-M protein levels in WT, but not PIN1 KO cells”, the IRAK-M phosphorylation [2] was “IRAK-M was phosphorylated” and the PIN1 activity [3] was “dramatically elevated PIN1 activity”. For the same molecule, the “change in CD11c^+ CD11b^+ CD205^+ cells” value ([4]; IRAK-M KO mice) was “non significant (NS) increase”, the “CD40 and CD80 overexpression in lung CD11c^+ cells” value ([4]; IRAK-M KO mice, IL-33 treated, n=3) was “attenuated” and the “change in CD11c^+ CD11b^+ CD205^+ cells” value ([4]; PIN1 KO mice) was “more moderate increase”. For the same molecule, the “CD40 and CD80 expression in lung CD11c^+ cells” value ([4]; WT mice, IL-33 treated, n=3) was “elevated”, the “induction of CD11c^+ CD11b^+ CD205^+ cells” value ([4]; WT mice, IL-33 vs PBS, n = 3, P < 0.05) was 3 fold and the “IL-5 and IL-13 secretion” value [5] was “high levels of IL-5 and -13”. The “expression of the four target genes” value [6] was “upregulated” and the PIN1-IRAK-M interaction [7] was “specific interaction”.
